Laboratory results reported in US20160251436A1 (PD 1 ACQUISITION GROUP, published 2016).

Tests used:
PD-1-HIS = molecular target: T1, PD-1-HIS (human, UniProt Q15116); test: ELISA, supernatant of transfected HEK293 cells on PD-1-HIS(tag), OD 450 nm, average of two experiments
T1 construct: soluble extracellular domain; May be the same protein as m2; also called PD-1-HIS(tag); PD-1-His Tag (Sino Biological #10377-H08H-50)

[1] = molecular target: T2, human Programmed Death-1 (PD-1) expressed on the cell surface (human, UniProt Q15116 25-288); test: cell binding, HEK293 cells expressing human PD-1, fluorescent anti-mouse secondary
T2 construct: whole, on cells; also called CD279; Human PD-1 Expressed on HEK293 Surface
T2 sequence (Q15116 25-288): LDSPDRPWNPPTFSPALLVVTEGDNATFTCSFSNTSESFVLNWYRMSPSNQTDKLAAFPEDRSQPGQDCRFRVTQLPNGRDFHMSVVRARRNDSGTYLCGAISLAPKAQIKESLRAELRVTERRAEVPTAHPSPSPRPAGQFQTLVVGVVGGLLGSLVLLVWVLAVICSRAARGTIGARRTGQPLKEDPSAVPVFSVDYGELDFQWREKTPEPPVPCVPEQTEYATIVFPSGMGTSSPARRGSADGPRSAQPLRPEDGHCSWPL
Experimental: Recombinant antibodies from cultured supernatants were also used in cell-based binding studies. HEK293 cells were transfected (Qiagen, SuperFect) with expression plasmids encoding the Ig heavy and light chains of anti-PD-1 antibodies. After 3-5 days, recombinant antibodies in the supernatants of transfected cells were harvested. Stable HEK293 cells expressing human PD-1 or primary cells were used for the cell-based binding confirmation studies. Antibodies from cultured supernatants were assessed for binding to cell surface PD-1 using fluorescently labeled anti-mouse IgG (polyclonal) antibody (Jackson Immunoresearch).
In both studies, commercially available mouse anti-PD-1 antibody and isotype control mouse IgG1 […] were used as controls. […] Strong binding is denoted as “+++”, medium binding is denoted as “++”, and weak binding is denoted as “+”.

[2] = molecular target: T2, human Programmed Death-1 (PD-1) …; test: cell-based or functional assay
[3] = molecular target: T3, soluble extracellular domain of human PD-1 (human, UniProt Q15116 25-170); test: BLI (ForteBio Octet Red), antibody on the biosensor, soluble PD-1 ECD as analyte
T3 construct: extracellular domain
T3 sequence (Q15116 25-170): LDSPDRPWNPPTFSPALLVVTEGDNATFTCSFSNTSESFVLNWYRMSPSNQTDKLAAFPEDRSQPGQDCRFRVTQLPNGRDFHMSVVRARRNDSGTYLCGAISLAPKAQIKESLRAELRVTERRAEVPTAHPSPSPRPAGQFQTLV
Experimental: Biophysical characteristics of certain anti-PD-1 antibodies were analyzed by biolayer interferometry (BLI), using the ForteBio Octet Red system (Pall Corporation, Menlo Park, Calif.). The antibodies were immobilized on BLI biosensors and then incubated with the soluble extracellular domain of human PD-1. Using standard biophysics methods, apparent on-rates and off-rates were then inferred for PD-1 with anti-PD-1 antibodies.

T1 sequence (Q15116 25-167 limits assumed): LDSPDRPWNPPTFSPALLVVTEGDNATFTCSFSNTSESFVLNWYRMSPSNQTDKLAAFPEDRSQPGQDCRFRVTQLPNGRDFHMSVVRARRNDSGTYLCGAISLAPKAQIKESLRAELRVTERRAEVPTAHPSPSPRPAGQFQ

Binder	binding result (PD-1-HIS)	binding result [1]	also measured
100388_C1VH6_100389_C1VK1 (antibody, V domains shown, Mouse variable regions; cloned into pFUSE-CHIg-mG1 (murine IgG1 Fc), expressed in HEK293; also called 388C16A) VH: EVQLQESGPELVKPGASVKIPCKASGYTFTDYNMDWVKQSHGKSLEWIGDIDPNNGGIIYNQKFKGKAALTVDKSSSTAYMELRSLTSEDTAVYYCTRWRSSMDYWGQGTSVTVSS VL: DIVMTQSPSSLSASLGDRVTISCSASQDISSYLNWYQQKPDGTVKLLIYYTSSLHSGVPSRFSGSGSGTDYSLTISNLEPEDIATYYCQQYSELPWTFGGGTKLEIK	binds	binds	–
100392_C5VH6_100393_C5VK10 (antibody, V domains shown, Mouse variable regions; cloned into pFUSE-CHIg-mG1 (murine IgG1 Fc), expressed in HEK293; also called 392C5B) VH: EVQLQESGPELVKPGASVKIPCKASGYTFTDYNMDWVKQSHGKSLEWIGDIDPNSGGSIYNQKFKGKATLTVDKSSRTVYMELRSLTSEDTAVYYCARWRSSMDYWGQGTSVTVSS VL: DIVMTQSTSSLSASLGDRVTISCSASQGISHYLNWYQQKPDGTVKLLIYYTSSLHSGVPSRFSGSGSGTDYSLTIRNLEPEDIATYYCQQYSELPWTFGGGTKLEIK	binds	binds	–
100392_C5VH6_100393_C5VK7 (antibody, V domains shown, Mouse variable regions; cloned into pFUSE-CHIg-mG1 (murine IgG1 Fc), expressed in HEK293; also called 392C5A) VH: EVQLQESGPELVKPGASVKIPCKASGYTFTDYNMDWVKQSHGKSLEWIGDIDPNSGGSIYNQKFKGKATLTVDKSSRTVYMELRSLTSEDTAVYYCARWRSSMDYWGQGTSVTVSS VL: DIVMTQSPSSLSASLGDRVTISCSASQGISHYLNWYQQKPDGTVKLLIYYTSSLHSGVPSRFSGSGSGTDYSLTIRNLEPEDIATYYCQQYSELPWTFGGGTKLEIK	binds	binds	–
100392_C4VH5_100393_C4VK8 (antibody, V domains shown, Mouse variable regions; cloned into pFUSE-CHIg-mG1 (murine IgG1 Fc), expressed in HEK293) VH: EVQLQESGPELVKPGASVKIPCKASGYTFTDYNMDWVKKSHGKSLEWIGDIDPNNGGTIYNQKFKGKATLTVDKSSRTAYMELRSLTSEDTAVYYCARWRSSMDYWGQGTSVTVSS VL: DIVITQSPSSLSASLGDRVTISCSASQGISNYLNWYQQKPDGTVKLLIYYTSSLHSGVPSRFSGSGSGTDYSLTISNLEPEDIATYYCQQYSELPWTFGGGTKLEIK	binds	binds	–
100394_D5VH9_100395_D5VK7 (antibody, V domains shown, Mouse variable regions; cloned into pFUSE-CHIg-mG1 (murine IgG1 Fc), expressed in HEK293) VH: EVQLQESGPELVKPGASVKIPCRASGYIFTDYNMDWVKQSHGKSLEWIGDIDPNNGGTIYNQKFKDKTTLTVDKSSRTAYMELRSLTSEDTAVYYCARWRSSMDYWGQGTSVTVSS VL: DIVMTQTPSSMSASLGDRVTISCSASQGISNYLNWYQQKPDGTVKLLIYYTSSLHSGVPSRFSGSGSGTDYSLTISNLEPEDIATYYCQQYSYLPWTFGGGTKLEIK	binds	binds	–
100392_H4VH9_100393_H4VK6 (antibody, V domains shown, Mouse variable regions; cloned into pFUSE-CHIg-mG1 (murine IgG1 Fc), expressed in HEK293) VH: EVQLQESGPELVKPGASVKIPCKASGYTFTDYNVDWVKQSHGKSLEWIGDIDPNNGGTFYNQKFKGKATLTVDKSSSTAHMELRSLTSEDTAVYYCVRWRSSMDYWGQGTSVTVSS VL: DIVMTQSPSSLSASLGDRVTISCSASQGISNYLNWYQQKPDGTVKLLIYYTSNLHSGVPSRFSGSGSGTDYSLTISDLAPEDIATYYCQQYSYLPWTFGGGTKLEIK	binds	binds	–
100388_C1VH6_100389_C1VK2 (antibody, V domains shown, Mouse variable regions; cloned into pFUSE-CHIg-mG1 (murine IgG1 Fc), expressed in HEK293; also called 388C16B) VH: EVQLQESGPELVKPGASVKIPCKASGYTFTDYNMDWVKQSHGKSLEWIGDIDPNNGGIIYNQKFKGKAALTVDKSSSTAYMELRSLTSEDTAVYYCTRWRSSMDYWGQGTSVTVSS VL: DIVLTQTPSSLSASLGDRVTISCSASQGISNYLNWYQQKPDGTVKLLIYYTSSLHSGVPSRFSGSGSGTDYSLTISNLEPEDIATYYCQQYSKLPWTFGGGTKLEIK	binds	binds	–
100394_G1VH1_100395_G1VK4 (antibody, V domains shown, Mouse variable regions; cloned into pFUSE-CHIg-mG1 (murine IgG1 Fc), expressed in HEK293) VH: EVQLQESGPELVKPGASVKIPCKASGYTFTDYNMDWVKQNHGKSLEWIGDIDPNNGDTIYNQKFKGKATLTVDKSSRTAYMELRSLTSEDTAVYYCARWRSSMDYWGQGTSVTVSS VL: DIVMTQSPSSLSASLGDRVTISCSASQGISNYLNWYQQRPDGTVKLLIYYTSSLHSGVPSRFSGSGSGTDYSLTISNLEPEDIATYYCQQYSNLPWTFGGGTKLEIK	binds	binds	–
100392_D2VH7_100393_D2VK6 (antibody, V domains shown, Mouse variable regions; cloned into pFUSE-CHIg-mG1 (murine IgG1 Fc), expressed in HEK293) VH: EVQLQESGPELVKPGASVKIPCKASGYTFTDYNMDWVKQSHGKSLEWIGDIDPNTGTTFYNQDFKGKATLTVDKSSSTAYMELRSLTSEDTAVYYCARWRSSMDYWGQGTSLTVSS VL: DIVMTQTPSSLSASLGDRVTISCSASQGISYYLNWYQQKPDGTIKLLIYYTLSLHSGVPSRFSGSGSGTDYSLTISNLEPEDIATYYCQQYSELPWTFGGGTKLEIK	binds	binds	–
100392_A6VH8_100393_A6VK5 (antibody, V domains shown, Mouse variable regions; cloned into pFUSE-CHIg-mG1 (murine IgG1 Fc), expressed in HEK293) VH: EVQLQESGAELVRPGASVTLSCKASGYTFTDYEIHWVKQTPVHGLEWIGAIDPETGGTAYNQKFKGKAILTADKSSSTAYMELRSLTSEDSAVYYCTSEKFGSSYYFDYWGQGTTFTVSS VL: DIVMTQSTLSLPVSLGDQVSISCRSSQSIVHSDGNTYLEWYLQKPGQSPNLLIYKVSNRFSGVPDRFSGSGSGTDFTLKISRVEAEDLGVYYCFQGSHVPLTFGAGTKLELK	binds	binds	–
388D4-3 (100388_D4_HC1 + 100389_D4_LC3) (antibody, V domains shown) VH: EVQLVQSGAEVKKPGASVKVSCKASGYTFTDYEMHWVRQAPGQGLEWMGIIDPGTGGTAYNQKFQGRVTMTADKSTSTVYMELSSLRSEDTAVYYCTSEKFGSNYYFDYWGQGTLVTVSS VL: DIVMTQTPLSSPVTLGQPASISCRSSQTIVHSDGNTYLEWYQQRPGQPPRLLIYKVSNRFSGVPDRFSGSGAGTDFTLKISRVEAEDVGVYYCFQGSHVPLTFGQGTKLEIK	–	–	Fold Induction IFN-γ (relative to isotype control; NSCLC biopsy cells, 20 µg/mL) [2]: 7.2 fold
100246_F7VH3_100247_F7VK2 (antibody, V domains shown, Mouse variable regions; cloned into pFUSE-CHIg-mG1 (murine IgG1 Fc), expressed in HEK293) VH: EVQLQESGPELVRPGASVKMSCKASGYTFTSYWMHWVKQRPGQGLEWIGMIDPYSSETSLNQKFKDKATLNVDKISNTAYMQLSSLTSEDSAVYFCARSRGNYAYDMDYWGQGTSVTVSS VL: DIVLTQSTAIMSASPGEKVTLTCSASSGVNSNYLYWYQQKPGSSPKLWIYSTSNLASGVPARFSGSGSGTSYSLTISSVEAEDAASYFCHQWSSYPPTFGSGTKLEIK	binds	binds	–
100258_F6VH4_100259_F6VK1 (antibody, V domains shown, Mouse variable regions; cloned into pFUSE-CHIg-mG1 (murine IgG1 Fc), expressed in HEK293) VH: EVQLQESGPELVRPGASVKMSCKASGYTFTSYWMHWVKQRPGQGLEWIGMIEPSSSETSLNQKFKDKATLNVDKSSNTAYMQLSSLTSEDSAVYYCARSRGNYAYEMDYWGQGTSVTVSS VL: DIVMTQTTATMSASPGEKVTLTCSASSSVNSNYLYWYQQKPGSSPKVWIYSTSNLASGVPARFSGSGSGTSYSLTISSMEAEDAASYFCHQWSSYPPTFGSGTKLELK	binds	binds	–
244C8-1 (100244_C8_HC1 + 100245_C8_LC1) (antibody, V domains shown) VH: QVQLVQSGAEVKKPGASVKVSCKASGYTFTSYWMHWVRQAPGQGLEWMGMIDPSNSETSLNQKFQGRVTMTVDKSTNTVYMELSSLRSEDTAVYYCARSRGNYAYEMDYWGQGTLVTVSS VL: EIVLTQSPATLSLSPGERATLSCRASSSVSSNYLYWYQQKPGQAPRLLIYSTSNRATGIPARFSGSGSGTDYTLTISSLEPEDFAVYYCHQWSSYPPTFGQGTKLEIK	–	–	Fold Induction IFN-γ (relative to isotype control; NSCLC biopsy cells, 20 µg/mL) [2]: 8.04 fold
244C8-3 (100244_C8_HC2 + 100245_C8_LC1) (antibody, V domains shown) VH: EVQLVQSGAEVKKPGASVKVSCKASGYTFTSYWMHWVRQAPGQGLEWMGMIDPSNSETSLNQKFQGRVTLNVDKSTNTAYMELSSLRSEDTAVYYCARSRGNYAYEMDYWGQGTLVTVSS VL: EIVLTQSPATLSLSPGERATLSCRASSSVSSNYLYWYQQKPGQAPRLLIYSTSNRATGIPARFSGSGSGTDYTLTISSLEPEDFAVYYCHQWSSYPPTFGQGTKLEIK	–	–	Fold Induction IFN-γ (relative to isotype control; NSCLC biopsy cells, 20 µg/mL) [2]: 7.79 fold
100258_C1VH4_100259_C1VK1 (antibody, V domains shown, Mouse variable regions; cloned into pFUSE-CHIg-mG1 (murine IgG1 Fc), expressed in HEK293) VH: EVQLQESGAELVMPGASVKMSCKASGYTFTDYWMHWVKQRPGQGLEWIGAIDTSDSYTSYHQNFKGKATLTEDESSSTAYMQLSSLTSEDSAIYYCARRDYGGFGYWGQGTTLTVSS VL: DIVITQSPLSLPVGLGDQASISCRSSQSLVHSNGNTYLHWYLQKPGQSPKLLIYKVSNRFSGVPDRFSGSGSGTDFTLKISRVEAEDLGVYFCSQSTHVPYTFGGGTKLEIK	binds	binds	–
100413_D2VH9_100414_D2VK6 (antibody, V domains shown, Mouse variable regions; cloned into pFUSE-CHIg-mG1 (murine IgG1 Fc), expressed in HEK293) VH: EVQLQESGPDLVKPSQSLSLTCTVTGYSITSGYSWHWIRQFPGNKLEWMGFIHYSGDTNYNPSLKSRFSITRDTSKNQFFLHLNSVTPEDTATYYCASPSRLLFDYWGHGTTLTVSS VL: DIVMTQSPSSLTVTAGEKVTMSCKSSQSLLNSGTQKNYLTWYQQKPGQPPKLLIYWASTRESGVPDRFTGSGSGTDFTLTISSVQAEDLAVYYCQNDYSYPLTFGAGTKLEIK	–	–	Kd [3]: 8.2 nM; koff [3]: 0.00226 s⁻¹; kon [3]: 275000 M⁻¹ s⁻¹
